“And” between values parts separate entries of the source, which are not always exact repeats. Equal entries are not always repeated.
Tested on: lymphocytes
Experiment: Proliferation assay for stimulated lymphocytes (tritiated thymidine incorporation; % suppression, SI)
Type: cell-based, mice
Conditions: for SI (stimulation index): stimulant alone: OVA 500 μg/ml, PPD 25 μg/ml, ConA 2.5 μg/ml, LPS 10 μg/ml, ionomycin 100 ng/ml with 1 ng/ml PMA

Concanavalin A [ConA, reference compound]
SI (stimulation index): 31.2 ± 32.7

ionomycin at 100 ng/ml with 1 ng/ml phorbol 12-myristate 13 acetate (PMA) [Ionomycin/PMA, reference compound]
SI (stimulation index): 23.6 ± 11.2

B1: chicken ovalbumin (protein, UniProt P01012 2-386, looked up)
Ovalbumin: GSIGAASMEFCFDVFKELKVHHANENIFYCPIAIMSALAMVYLGAKDSTRTQINKVVRFDKLPGFGDSIEAQCGTSVNVHSSLRDILNQITKPNDVYSFSLASRLYAEERYPILPEYLQCVKELYRGGLEPINFQTAADQARELINSWVESQTNGIIRNVLQPSSVDSQTAMVLVNAIVFKGLWEKAFKDEDTQAMPFRVTEQESKPVQMMYQIGLFRVASMASEKMKILELPFASGTMSMLVLLPDEVSGLEQLESIINFEKLTEWTSSNVMEERKIKVYLPRMKMEEKYNLTSVLMAMGITDVFSSSANLSGISSAESLKISQAVHAAHAEINEAGREVVGSAEAGVDAASVSEEFRADHPFLFCIKHIATNAVLFFGRCVSP
notes: Stimulating antigen
SI for chicken ovalbumin incubated with brain homogenate (homogenate removed by centrifugation and 0.2μ filter, n=4): 4.8±1.8
SI for chicken ovalbumin incubated alone (incubated without brain homogenate, n=4): 4.1±0.9
SI (stimulation index): 8.8 ± 5.8 and 7.9 ± 4.2

Reference: patent US6352723B1, “Brain-derived alkali-soluble immunoregulatory composition” (priority 1999, dated 2002)
